# Measured values taken from US20200016201A1.
# Key:
# [1] = target: HLA-DR on human cells (human); assay: avidity constant on tonsil lymphocytes
# [2] = target: HLA-DR on human cells (human); assay: avidity constant, Scatchard plot analysis on the target tumor cell line (ARH-77)
Binder,Ka [1] [M⁻¹],Ka [2] [M⁻¹]
"Lym-1 (antibody, V domains shown) VH: QLKESGPGLVAPSQSLSITCTISGFSLTSYGVHWVRQPPGKGLEWLVVIWSDGSTTYNSALKSRLSISKDNSKSQVFLKMNSLQTDDTAIYYCASHYGSTLAFASWGHGTLVTVSA VL: DIQMTQSPASLSASVGETVTIICRASVNIYSYLAWYQQKQGKSPQLLVYNAKILAEGVPSRFSGSGSGTQFSLKINSLQPEDFGSYYCQHHYGTFTFGSGTKLEIK",8.8e+07,–
"Lym-2 (antibody, V domains shown) VH: EVQLEESGGGLVQPGGSMKLSCVASGFTFSNYWMNWVRQSPEKGLEWVAEIRFKSHNYATHFAESVKGRFTISRDDSKSSVYLQMNNLRAEDTGIYYCTRRIGNSDYDWWYFDVWGAGTSVTVSS VL: DIVMTQSHKFMSTSVGDRVSVTCKASQNVGNNVAWYQQKPGQSPKVLIYSASYRYSGVPDRFTGSGSGTDFTLTISNVQSEDLAEYFCQQYNTYPFTFGSGTKLEIK",1.23e+08,2.33e+08
